Series [1] addresses T1, KstR2Mtb (Mycobacterium tuberculosis, UniProt P9WMB9 1-200). Kind of series: EMSA; 1 uM DNA, 6 uM protein, 10 mM MgCl2; 20 mM Tris/HCl pH 8.0, 10 mM MgCl2, 75 mM NaCl, 20 min at 37 C; […]. The conditions noted are these: protein: recombinant; tags: none in EMSA (His6 tag removed with TEV protease); chain copies: 2; label: none (ethidium bromide stain); blunt.
For series [2], the target named is T1, KstR2Mtb. Put plainly: EMSA; 20 mM Tris/HCl pH 8.0, 10 mM MgCl2, 75 mM NaCl, 20 min at 37 C; […]. The following applies: protein: recombinant; tags: none in EMSA (His6 tag removed with TEV protease); chain copies: 2; label: 3' DIG-11-ddUTP (end-labelled).

The source of these data is paper PMC3068626, “Cholesterol utilization in mycobacteria is controlled by two TetR-type transcriptional regulators: kstR and kstR2”.

T1 sequence (P9WMB9 whole entry): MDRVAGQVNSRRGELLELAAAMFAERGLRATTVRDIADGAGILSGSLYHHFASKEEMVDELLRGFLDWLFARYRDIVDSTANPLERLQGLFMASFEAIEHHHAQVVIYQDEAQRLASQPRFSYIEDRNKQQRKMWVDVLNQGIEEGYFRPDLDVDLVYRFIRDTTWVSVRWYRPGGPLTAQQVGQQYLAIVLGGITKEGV

B1: Rv3549c/Rv3550 probe (dsDNA)
DNA 1: GCGTACCAAGCAAGTGCTTGCTTAGGTAGC
DNA 2: GCTACCTAAGCAAGCACTTGCTTGGTACGC
As to B1, the binding result in series [1] was “binds”.

B2: Rv3557c/Rv3558 probe (dsDNA)
DNA 1: GCTGGCCGAGCAAGCGCTTGGTTGATAGTC
DNA 2: GACTATCAACCAAGCGCTTGCTCGGCCAGC
In the case of B2, the binding result in series [1] is listed as “binds”.

B3: Rv3560c/Rv3561 probe (dsDNA)
DNA 1: GCTAACCTACCAAGCACTTGCTTTGTTAGG
DNA 2: CCTAACAAAGCAAGTGCTTGGTAGGTTAGC
For the molecule B3, in series [1], the binding result is “binds”.

B4: Rv3557c/Rv3558 probe, DIG-labelled (dsDNA)
DNA 1: B2 DNA 1
DNA 2: B2 DNA 2
Turning to B4, the binding result in series [2] was “binds”.
